Measured values published in US20100239588A1 (SHANGHAI NATIONAL ENGINEERING RESEARCH CENTER OF ANTIBODY …, published 2010).
Ends that are not written are not given here.

T1: phage clone 5F12
T1 construct: not shown: phage coat protein carrying the 12-mer (NEB Ph.D.-12 library)
T1 peptide: DVYWLMPDPPTS

T2: phage clone 5D2
T2 construct: The sentence also calls it a 'synthetic short peptide'; not shown: phage coat protein carrying the 12-mer (NEB Ph.D.-12 library)
T2 peptide: GTSTEVWLAPDP

T3: KLH-5F12 (also: coupled to KLH (site and chemistry not given here))
T3 construct: Synthetic 5F12 peptide as a KLH conjugate, spotted in the dot blot; also called short peptide 5F12 coupled to KLH
T3 peptide: DVYWLMPDPPTS


Key:
phage clone 5F12 = target: T1, phage clone 5F12; assay: phage clone panned on an antibody-coated plate, eluted titer
phage clone 5D2 = target: T2, phage clone 5D2; assay: as above
human OPN protein [1] = target: T4, human OPN protein (human, UniProt P10451 17-314, limits assumed); assay: western blot
T4 construct: also called hOPN; human osteopontin
T4 sequence (P10451 17-314 limits assumed): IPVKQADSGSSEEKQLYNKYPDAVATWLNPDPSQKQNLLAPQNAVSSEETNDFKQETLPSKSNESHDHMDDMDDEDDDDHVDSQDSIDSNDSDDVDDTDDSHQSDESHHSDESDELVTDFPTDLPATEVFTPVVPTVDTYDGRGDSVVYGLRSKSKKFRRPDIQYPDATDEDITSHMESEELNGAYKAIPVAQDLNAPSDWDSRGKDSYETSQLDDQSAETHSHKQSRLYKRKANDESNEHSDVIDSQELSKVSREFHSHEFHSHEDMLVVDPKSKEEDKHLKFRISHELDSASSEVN

KLH-5F12 = target: T3, KLH-5F12; assay: dot blot, 10 ng dots of KLH peptide
Protocol: Dot-blot assay was as follows: three dots of 3×10 ng KLH-4B5 (irrelevant control) and KLH-5F12 respectively, were pointed. Each short peptide obtained in experiment V-4 was used to hybrid with three different antibodies. After being blocked and washed, the membrane was reacted with primary antibody at room temperature for 1 hour. Then, the membrane was washed again, and reacted with HRP-labeled anti-mouse secondary antibody at room temperature for 1 hour. After being washed, the membrane was pressed and exposed.

human OPN protein [2] = target: T4, human OPN protein; assay: western blot, 5 ug hOPN per lane
Protocol: SDS-PAGE (10%) electrophoresis was carried out (5 ug hOPN/lane). hOPN was transferred to nitrocellulose membrane by 360 mA constant current for 1 hour.

binding result (phage clone 5F12) | binding result (phage clone 5D2) | binding result (human OPN protein [1]) | binding result (KLH-5F12) | binding result (human OPN protein [2]) | Binder
binds | binds | binds | binds |  | mouse anti-human OPN monoclonal antibody 23C3 (antibody, V domains shown, also called 23C3 mAb; 23C3 monoclonal antibody) VH: EVQLVESGGGLVQPKGSLKISCAASGFTFNIYAMNWVRQAPGKGLEWVARIRSQSNNYTTYYADSVKDRFTISRDDSQSMLYLQMNNLKTEDTAMYYCVRQMGDYWGQGTTLTVSS VL: YIQMTQSPASLSVSVGETVTITCRASENIYSFLAWYQQKQGKSPQLLVYAATNLADGVPSRFSGSGSGTQFSLKINSLQSEDFGTYYCQHFWGTPFTFGSGTKLEIKR
 |  |  |  | binds | anti-OPN humanized antibody h23C3 (h23C3Hb/h23C3Lb) (antibody, human IgG1, kappa, V domains shown, Humanized variable regions that retain seven murine framework residues, joined to the human CH and CL by the same method as for h23C3Ha/h23C3La; The signal peptide is left out; also called h23C3VHb/h23C3VLb) VH: EVQLVESGGGLVQPGGSLRLSCAASGFTFNIYAMNWVRQAPGKGLEWVARIRSQSNNYTTYYADSVKDRFTISRDDSKNSLYLQMNSLKTEDTAVYYCVRQMGDYWGQGTLVTVSS VL: YIQMTQSPSSLSASVGDRVTITCRASENIYSFLAWYQQKPGKAPQLLVYAATNLADGVPSRFSGSGSGTQFTLTISSLQPEDFATYYCQHFWGTPFTFGQGTKLEIKR
 |  |  |  | binds | anti-OPN chimeric antibody c23C3 (antibody, human IgG1, kappa, V domains shown, 23C3 VH and VL joined by overlap PCR to the cloned human CH (pGEM-T/CH) and CL (pGEM-T/CL); also called C23C3 chimeric antibody; chimeric monoclonal antibody c23C3) VH: EVQLVESGGGLVQPKGSLKISCAASGFTFNIYAMNWVRQAPGKGLEWVARIRSQSNNYTTYYADSVKDRFTISRDDSQSMLYLQMNNLKTEDTAMYYCVRQMGDYWGQGTTLTVSS VL: YIQMTQSPASLSVSVGETVTITCRASENIYSFLAWYQQKQGKSPQLLVYAATNLADGVPSRFSGSGSGTQFSLKINSLQSEDFGTYYCQHFWGTPFTFGSGTKLEIKR
